Experimental data reported in paper PMC2659760.

Legend:
[1] = substrate: COc1ccc2cc(CN)ccc2c1; assay: Substrate activity with BPAO; format: biochemical, bovine; settings: other: UV-vis spectrophotometry, pH 7.2 phosphate buffer, 30 °C
[2] = substrate: NCc1ccccc1; assay: Substrate activity with BPAO; format: biochemical, bovine; settings: other: UV-vis spectrophotometry, pH 7.2 phosphate buffer, 30 °C

B1: bovine plasma amine oxidase (BPAO) (Bos taurus) (protein)
chain: REEGGVGSEEGVGKQCHPSLPPRCPSRSPSDQPWTHPDQSQLFADLSREELTTVMSFLTQQLGPDLVDAAQARPSDNCVFSVELQLPPKAAALAHLDRGSPPPAREALAIVFFGGQPQPNVTELVVGPLPQPSYMRDVTVERHGGPLPYYRRPVLLREYLDIDQMIFNRELPQAAGVLHHCCSYKQGGQKLLTMNSAPRGVQSGDRSTWFGIYYNITKGGPYLHPVGLELLVDHKALDPADWTVQKVFFQGRYYENLAQLEEQFEAGQVNVVVIPDDGTGGFWSLKSQVPPGPTPPLQFHPQGPRFSVQGNRVASSLWTFSFGLGAFSGPRVFDVRFQGERLAYEISLQEAGAVYGGNTPAAMLTRYMDSGFGMGYFATPLIRGVDCPYLATYMDWHFVVESQTPKTLHDAFCVFEQNKGLPLRRHHSDFLSHYFGGVAQTVLVFRSVSTMLNYDYVWDMVFYPNGAIEVKLHATGYISSAFLFGAARRYGNQVGEHTLGPVHTHSAHYKVDLDVGGLENWVWAEDMAFVPTAIPWSPEHQIQRLQVTRKQLETEEQAAFPLGGASPRYLYLASKQSNKWGHPRGYRIQTVSFAGGPMPQNSPMERAFSWGRYQLAITQRKETEPSSSSVFNQNDPWTPTVDFSDFINNETIAGKDLVAWVTAGFLHIPHAEDIPNTVTVGNGVGFFLRPYNFFDQEPSMDSADSIYFREGQDAGSCEINPLACLPQAATCAPDLPVFSHGGYPEY
[1]
  Km: 0.74±0.15 mM mM
  kcat: 1.15 ± 0.06 s⁻¹
  kcat/Km: 1550 M⁻¹ s⁻¹
[2]
  Km: 1.77±0.24 mM mM
  kcat: 1.23 ± 0.06 s⁻¹
  kcat/Km: 695 M⁻¹ s⁻¹
